Results taken from patent EP1500662A2 (CORNELL RESEARCH FOUNDATION, INC., dated 2005).
Changes are numbered by the printed parent chain. Names and notes keep the numbering of the source.

Tests used:
Assay in all cases: cell-based or functional assay
[1] = molecular target: envelope glycoprotein of HIV-1 DJ258 (HIV-1 DJ258)
[2] = molecular target: envelope glycoprotein of HIV-1 NL4-3 (HIV-1 NL4-3)
[3] = molecular target: envelope glycoprotein of HIV-1 Case C 7/86 (HIV-1 Case C 7/86)
[4] = molecular target: envelope glycoprotein of HIV-1 94ZW103 (HIV-1 94ZW103)
[5] = molecular target: envelope glycoprotein of HIV-1 UG270 (HIV-1 UG270)
[6] = molecular target: envelope glycoprotein of HIV-1 CM.235 (HIV-1 CM.235)
[7] = molecular target: envelope glycoprotein of HIV-1 BZ162 (HIV-1 BZ162)
[8] = molecular target: envelope glycoprotein of HIV-1 JFRL (HIV-1 JFRL)

B1: C52F peptide (peptide)
peptide: NHTTWMEWDREINNYTSLIHSLIEESQNLQEKNEQELLELDKWASLWNWFNIKIK
[1]
  IC50 (nM), Human PBMC Infectivity Assays: 9 nM
[2]
  IC50 (nM), Human PBMC Infectivity Assays: 23 nM
[3]
  IC50 (nM), Human PBMC Infectivity Assays: 49 nM
[4]
  IC50 (nM), Human PBMC Infectivity Assays: 4 nM
[5]
  IC50 (nM), Human PBMC Infectivity Assays: 68 nM
[6]
  IC50 (nM), Human PBMC Infectivity Assays: 11 nM
[7]
  IC50 (nM), Human PBMC Infectivity Assays: 2 nM
[8]
  IC50 (nM), Human PBMC Infectivity Assays: 5 nM

B2: C52L peptide (peptide)
peptide: B1 peptide with I23F, N33A, L38F
[1]
  IC50 (nM), Human PBMC Infectivity Assays: 11 nM
[2]
  IC50 (nM), Human PBMC Infectivity Assays: 20 nM
[3]
  IC50 (nM), Human PBMC Infectivity Assays: 17 nM
[4]
  IC50 (nM), Human PBMC Infectivity Assays: 3 nM
[5]
  IC50 (nM), Human PBMC Infectivity Assays: 61 nM
[7]
  IC50 (nM), Human PBMC Infectivity Assays: 3 nM
[8]
  IC50 (nM), Human PBMC Infectivity Assays: 6 nM
